US20030143232

Assays:
[1] = biological target: recombinant wild type survivin (unphosphorylated) (UniProt O15392)
[2] = biological target: recombinant survivin(T34A) (UniProt O15392)
recombinant survivin(T34A), sequence (O15392 whole entry T34A): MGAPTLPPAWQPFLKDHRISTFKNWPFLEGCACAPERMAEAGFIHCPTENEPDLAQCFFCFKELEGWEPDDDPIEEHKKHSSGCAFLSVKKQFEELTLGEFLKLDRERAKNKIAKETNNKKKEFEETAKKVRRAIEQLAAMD

recombinant wild type survivin (unphosphorylated), sequence (O15392 whole entry, looked up): as the sequence (O15392 whole entry T34A) above, with A34T counted along it

Row | Substance | in vitro kinase assay, 32P autoradiography [1] | in vitro kinase assay, 32P autoradiography [2]
1 | baculovirus-expressed human Cdk2-cyclin E kinase complex | baculovirus-expressed Cdk2-cyclin E did not phosphorylate wild type survivin or survivin(T34A) | baculovirus-expressed Cdk2-cyclin E did not phosphorylate wild type survivin or survivin(T34A)
2 | baculovirus-expressed human p34^cdc2-cyclin B1 kinase complex | baculovirus-expressed p34^cdc2-cyclin B1 readily phosphorylated recombinant wild type survivin | substitution of Thr^34→Ala, i.e. survivin(T34A), abolished phosphorylation by p34^cdc2-cyclin B1
